According to article PMC2879707 (2011):

Molecular target: F-actin (skeletal muscle actin) (Oryctolagus cuniculus, UniProt P68135)
Test: high-speed co-sedimentation

- Kd: 940 nM
B1: TRIOBP-4 isoform 4 (protein)
chain: MSMEQDTRALLPTQGTAWATASAPVARLQGPQGDSHQACSQEPHSPSSAEAPYCDLPRCPPALQNPLRTTTCVGQSVHSLGLGLGQEPQRVWSPTTALPAEGPAAAPKNRHQDSEGIPYLEGLARSSCTDDNDNKDEDEDPNSNTSSSQDSNTPHDTSNSSSVDWDTTERPGVVPSRNRLTEMIPRRPQEGLRADSARKATRSPARGDTAGQRKENSGSGGQSAGQHWAKLRSESGYFSLERQRSGQTQASSGTPPSGPRGTTQASSAQRDVFQAAPAQEAPQTSSLPRNTQRDTQRSTPRTSSPSRVSQRDTPRVMSTQRKNTPLSSPLRATPETLKISAPEDGTHVTPSPCVQDSSLNRTSQRDSSRTPCIQWDNPRASSPNRTTQRDNPRTPCTQRDNPRASSPNRTTQRDNPRTPCTQRDNPRASSPNRTTQRDNPRTPCAQRDNPRAASPNRSTQRDSPRTPCAQRDNPRASSPNRTAQRDNPRTPCAQRDNPRTSCTSQNTPRTPSTQADKTTASCSKWEHLRSACTQRDNPRTFSQGCTQKDNPGPPSPRRATQGSNSRNPSPHRTNKDIPWASFPLRPTQSDSPRTSSPSRTKQNQVPWASISLRPTQGDKPQTSAPTRLAHNDPPQQYSPSLATTSSSSHNPGHSSASRTSSPLHAAPRGAPQTSLESSQPPCTVCIGHRDAPRASSPPRYFQYDPFPFFPDPRSSESESPHHEPPYMPPAVCIGHRDAPRATSPPRHTQFDPFPFLPDTSDADNESPQHDPPQFPPPVCIGYRDAPRASSPPRQFPEPSFFQDLPRASTESLVPSTDSMHEPPHIPTPVCIGHRDAPSFSSPPRQAPEPSLFFQDPPGTSMESLAPSIDSLHGCPLLPPQVCIGHRDAPRASSPPRHPPSDIGLLAPSPPPGSSGSRGSAPPGETRHNLEREEYTMLADLPPPRRLAQRGPEPQAQGSNEGRTRSPGRAEVERLFGQERRKSEAPGAFQTRDEGRSQRPSQAQSQLRRQSSPAP
modifications: N-terminal GFP and C-terminal FLAG fusion on TRIOBP-4, filamentous actin
